Reference: PMC7064540

Assays:
[1] = confocal GFP imaging with ER-Tracker; details: glycan lost; control: wild type Gpr176-GFP
[2] = immunoblot after MG132 or bafilomycin A1, 6 h; details: glycan lost; control: wild type Gpr176-GFP
[3] = immunoblot densitometry, Dox-induced Flp-In TREx293; details: glycan lost; for expression_or_secretion, percent_of_wt: control: wild type; for expression_or_secretion: control: wild type hGPR176
[4] = immunoblot of PNGase F-treated live cells; details: glycan lost; control: cells without PNGase F

B1: Gpr176: N-ter mut (protein)
parent chain: MGHNSSWVSPNTSHPRNTSGAEAGANLSAFGELSEAQLYRQFTTTVQVVIFIGSLLGNFMVLWSTCRTTVFKSVTNRFIKNLACSGICASVVCVPFDIILSSSPHCCWWIYTMLFCKVLKFLHKVFCSVTVLSFPAIALDRYYSVLYPLERKISDAKSRELVMYIWAHAVVASVPVFAVTNVADIYAMSTCTEVWSNSLGHLVYVLIYNVTTVIVPVAVVFLFLILIRRALSASQKKKVIIAALRTPQNTISIPYASQREAELHATLLSMVTVFILCSVPYATLVVYQTVLNVPNTSVFLLLTAIWLPKVSLLANPVLFLTVNKSVRKCLVGTLVQLHHRYSRRNVVSTGSGVAEPSLEPSMRSGSQLLEMFHIGQQQIFKPSEDEEESEAKYLGSADFQAKEVLTSCPEGEQEPPQLAPSVPPPGTVDSEPRVSPVAPMESGIFPDKYSLQFGFGPFELPPQWLSETRNSKKRLLPPLGNTPEELIQTKVPRVNRVERKMSRNNKVSIFPKVDS
Q: Which localisation_or_trafficking [1] does the source give for B1 here?
A: Its localisation_or_trafficking is “changes”.

Q: And the degradation_or_half_life [2]?
A: The degradation_or_half_life was “decreases”.

Q: What about the “expression_or_secretion, percent_of_wt” value [3] of the same protein?
A: Its value is “decreases”.

B2: Gpr176: PNGase F (protein)
parent chain: B1 parent chain
Q: Which expression_or_secretion [4] does the source give for B2 here?
A: The expression_or_secretion was “no change”.

B3: Gpr176: N-ter/ECL3 (protein)
parent chain: B1 parent chain
Q: For B3, which “expression_or_secretion, percent_of_wt” value [3] is on record?
A: Its value is “decreases”.

B4: hGPR176: N-ter mut (N4Q;N11Q;N17Q;N27Q) (protein)
parent chain: MGHNGSWISPNASEPHNASGAEAAGVNRSALGEFGEAQLYRQFTTTVQVVIFIGSLLGNFMVLWSTCRTTVFKSVTNRFIKNLACSGICASLVCVPFDIILSTSPHCCWWIYTMLFCKVVKFLHKVFCSVTILSFPAIALDRYYSVLYPLERKISDAKSRELVMYIWAHAVVASVPVFAVTNVADIYATSTCTEVWSNSLGHLVYVLVYNITTVIVPVVVVFLFLILIRRALSASQKKKVIIAALRTPQNTISIPYASQREAELHATLLSMVMVFILCSVPYATLVVYQTVLNVPDTSVFLLLTAVWLPKVSLLANPVLFLTVNKSVRKCLIGTLVQLHHRYSRRNVVSTGSGMAEASLEPSIRSGSQLLEMFHIGQQQIFKPTEDEEESEAKYIGSADFQAKEIFSTCLEGEQGPQFAPSAPPLSTVDSVSQVAPAAPVEPETFPDKYSLQFGFGPFELPPQWLSETRNSKKRLLPPLGNTPEELIQTKVPKVGRVERKMSRNNKVSIFPKVDS
Q: Which expression_or_secretion [3] does the source give for B4 here?
A: The expression_or_secretion was “decreases”.

B5: hGPR176: N4D (protein)
parent chain: B4 parent chain
Q: For B5, which expression_or_secretion [3] is on record?
A: Its expression_or_secretion is “no change”.

B6: hGPR176: N4S (protein)
parent chain: B4 parent chain
Q: Which expression_or_secretion [3] does the source give for B6 here?
A: Its expression_or_secretion is “decreases”.

B7: hGPR176: N17K (protein)
parent chain: B4 parent chain
Q: For B7, which expression_or_secretion [3] is on record?
A: The expression_or_secretion was “no change”.

B8: hGPR176: N17T (protein)
parent chain: B4 parent chain
Q: With B8 as the protein, how does the expression_or_secretion [3] read?
A: The expression_or_secretion was “no change”.

B9: hGPR176: S13G (protein)
parent chain: B4 parent chain
Q: Which expression_or_secretion [3] does the source give for B9 here?
A: Its expression_or_secretion is “decreases”.
